Experimental data from patent publication US20080138339A1 (DONGGNAN HAOFA BIOTECHNOLOGY DEVELOPMENTAL, published 2008).

Biological target: T1, OC183B2 (antigens associated with ovarian carcinoma) (human)
T1 construct: It is treated here as a protein antigen; also called HRP-OC183B2
Assay: direct ELISA; plate coated with bispecific antibody, HRP-OC183B2 added, read at 492 nm
Protocol: The antigen-binding activity of anti-ovarian carcinoma scFv in bispecific antibody was assayed by direct ELISA. ELISA plate was coated with bispecific antibody at 4° C. overnight. Wells coated with anti-ovarian monoclonal antibody were set as positive control. Plate was washed 3 times with PBST (PBS-0.05% Tween 20) for 5 min. HRP-OC183B2 diluted in 3% goat serum was added and incubate at 37° C. for 1 h. After washing plate 3 times with PBST, the substrate of HRP was added and incubated for 20 min at room temperature in the dark. 2M H2SO4 was added to stop the reaction. All the values of OD492 of bispecific antibody were 2.5 times higher than those of negative control and changed with gradient among the different dilution of bispecific antibody.

B1: anti-human ovarian carcinoma x anti-human CD3 bispecific antibody (bispecific antibody, not shown: a dimerising Fc or GST)
chain: EVQLQESGPEVKKPGETVRISCKASGYTFTTAGMQWVQKMPGKGLKWLGWINTNSEVPKYAEDFRGRFAFSLETSASTAYLQISNLKNEDTATFFCARSFTWGTMDYWGQGTTVTVSSGGGGSGGGGSGGGGSDVVMTQTPLSLPVSLGDQASISCRSSQTLVHSIGNTYLHWYLQKPGQSPKLLIYKVSNRFSGVPDRFSGSGSGTDFTLKISRVEAEDLGVYFCSQSTHVPYTFGGGTKLELKEIVLTQSPATLSLSPGERATLSCSASSSVSYMNWYQQKPGQAPRRWIYDTSKLASGIPARFSGSGSGTDFTLTISSLEPEDFATYYCQQWSSNPFTFGGGTKVEIKRGGGGSGGGGSGGGGSQVQLVQSGAEVRKPGASVRVSCKASGYTFTRYTMHWVRQAPGHGLEWIGYINPSRGYTNYNQKFKDRVTMTTDKSFSTAIMDLRSLRSDDSAVYYCARYYDDHYCLDYWGQGTTVTVSSHHHHHH
notes: Single polypeptide expressed from pAMAB in E. coli G1724, about 52 kDa; Order: anti-ovarian scFv, interlinker, anti-CD3 reshaped scFv, 6 His; also called BsAb; ScBsAb
OD492 relative to negative control: 2.5 times
